Data set [1] deals with the molecule itself. The data set can be described thus: Number&Brightness.
Data set [2] deals with the molecule itself.

Like-named read-outs stand apart in the source and are kept apart here.

The record followed here is paper doi:10.1101/311175 (bioRxiv, 2018).

The stoichiometry N is a count of units in the complex or per binding partner.

B1: E. coli glutamine synthetase fused to mEGFP (GlnA-mEGFP) (enzyme)
chain: MSAEHVLTMLNEHEVKFVDLRFTDTKGKEQHVTIPAHQVNAEFFEEGKMFDGSSIGGWKGINESDMVLMPDASTAVIDPFFADSTLIIRCDILEPGTLQGYDRDPRSIAKRAEDYLRSTGIADTVLFGPEPEFFLFDDIRFGSSISGSHVAIDDIEGAWNSSTQYEGGNKGHRPAVKGGYFPVPPVDSAQDIRSEMCLVMEQMGLVVEAHHHEVATAGQNEVATRFNTMTKKADEIQIYKYVVHNVAHRFGKTATFMPKPMFGDNGSGMHCHMSLSKNGVNLFAGDKYAGLSEQALYYIGGVIKHAKAINALANPTTNSYKRLVPGYEAPVMLAYSARNRSASIRIPVVSSPKARRIEVRFPDPAANPYLCFAALLMAGLDGIKNKIHPGEAMDKNLYDLPPEEAKEIPQVAGSLEEALNELDLDREFLKAGGVFTDEAIDAYIALRREEDDRVRMTPHPVEFELYYSV
Consider B1, for which the “stoichiometry N” value in data set [1] was determined as 11.9.

B2: Influenza A virus hemagglutinin fused to mEGFP (HA-wt-mEGFP) (natural protein)
chain: not shown
Regarding B2, in data set [2], the “stoichiometry N” value was 3.17.
